Molecular target: F-actin (UniProt P68032)
Assay: co-sedimentation

Substance	Kd
wild-type human striated α-tropomyosin (Tpm1.1) with the N-terminal extension Met-Ala-Ser (natural protein)	1.8 µM
E40K mutant human α-tropomyosin (Tpm1.1) with the N-terminal extension Met-Ala-Ser (natural protein)	1.6 µM
E62Q mutant human α-tropomyosin (Tpm1.1) with the N-terminal extension Met-Ala-Ser (natural protein)	1.7 µM
